Values of other authors in PMC3931689.

Target: Protein phosphatase 1 (Mus musculus) (UniProt P62137)
Chain of UniProt P62137 (P62137 2-330): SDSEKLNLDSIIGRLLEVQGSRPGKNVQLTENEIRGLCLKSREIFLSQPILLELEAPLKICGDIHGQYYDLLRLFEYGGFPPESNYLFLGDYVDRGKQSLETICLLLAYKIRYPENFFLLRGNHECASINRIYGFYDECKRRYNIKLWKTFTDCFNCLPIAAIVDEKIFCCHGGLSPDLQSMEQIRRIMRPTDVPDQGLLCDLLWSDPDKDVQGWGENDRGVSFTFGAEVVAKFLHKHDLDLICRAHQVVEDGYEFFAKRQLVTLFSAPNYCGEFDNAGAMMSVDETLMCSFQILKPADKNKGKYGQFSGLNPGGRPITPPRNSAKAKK

Ki: 1 nM
Substance: Inhibitor-1 (from UniProt Q9ERT9)
